Laboratory results taken from paper PMC6412121.

Biological target: TF-TDP-43-FL (UniProt Q13148)
Assay: EMSA
Details: biotin-UTP incorporated in transcription; EMSA: 40 mM Tris-HCl pH 7.4, 30 mM KCl, 1 mM MgCl2, 0.01% IGEPAL CA-630, 1 mM DTT, 10 ug yeast tRNA, 10 ug BSA, 10 ng RNA, 200 ng protein in 10 ul, 25 C, 20 min

Chain of TF-TDP-43-FL (Q13148 whole entry): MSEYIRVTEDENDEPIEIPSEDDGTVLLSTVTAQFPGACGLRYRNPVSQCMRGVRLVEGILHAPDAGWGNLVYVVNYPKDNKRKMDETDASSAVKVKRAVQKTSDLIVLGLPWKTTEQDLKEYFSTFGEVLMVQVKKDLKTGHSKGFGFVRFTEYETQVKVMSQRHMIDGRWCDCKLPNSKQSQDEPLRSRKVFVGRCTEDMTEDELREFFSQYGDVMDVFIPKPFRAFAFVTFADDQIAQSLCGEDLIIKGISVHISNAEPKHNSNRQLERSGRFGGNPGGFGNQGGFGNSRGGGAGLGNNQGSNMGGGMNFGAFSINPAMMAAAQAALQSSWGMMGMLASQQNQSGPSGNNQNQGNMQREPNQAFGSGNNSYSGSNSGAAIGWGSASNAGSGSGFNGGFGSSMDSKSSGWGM

In the case of “GGGAGAGCAAAGUGAUGAGUAAUACUGGCUGGAGCCCCAAAGAGGCACGUGUGUGUGUUUGUGUGUGUGUGUAUAUGCUUGUCAGUGCAUGCACGUGUAUGUCUGGGAGUACAAAUGGGUGCGACUGGUUGUAGGGAACUAGCUAUGUGCCUUCUAUUAGGCCAUGACAGUCAAACUGAUAAGAUCUGAUUGC [scaRNA28]”, the binding is reported as “binds”.
